Results from PMC7596504 (2020).

Target: T1, MORC4 ATPaseCW cassette (aa 29-486) (human, UniProt Q8TE76 29-486)
T1 chain: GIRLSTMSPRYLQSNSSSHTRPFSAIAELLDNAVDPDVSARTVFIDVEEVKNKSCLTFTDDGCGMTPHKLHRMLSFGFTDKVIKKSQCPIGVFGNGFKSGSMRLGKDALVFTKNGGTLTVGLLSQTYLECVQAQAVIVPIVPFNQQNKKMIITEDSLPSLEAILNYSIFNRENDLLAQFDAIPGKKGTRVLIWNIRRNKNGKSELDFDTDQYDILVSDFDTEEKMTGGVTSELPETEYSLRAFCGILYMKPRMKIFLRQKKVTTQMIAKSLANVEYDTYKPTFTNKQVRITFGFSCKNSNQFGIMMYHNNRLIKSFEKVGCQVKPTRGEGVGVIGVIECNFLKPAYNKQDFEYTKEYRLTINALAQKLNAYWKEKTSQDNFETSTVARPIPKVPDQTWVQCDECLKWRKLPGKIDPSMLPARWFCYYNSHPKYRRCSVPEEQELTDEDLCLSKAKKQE

Kd: 12 µM
Binder: ARTKQTARKSTG [unmodified histone H3 peptide (aa 1-12 of H3)]
